Kd data for 1 substance are collected here from article PMC3314109.

The assay deals with the mutants of both surface loops (39-loop and 60-loop mutants of FXa). As to the kind of experiment: prothrombinase activity titration.

What is called Kd is the concentration at which binding is half-saturated. Higher therefore signals weaker binding.

For “factor Va (thrombin activated factor V) (from UniProt P12259 29-737; P12259 1574-2224) (complex)”, the Kd was in the range of 1 to 2 nM.
